Data: patent US20140044713A1 (KONINKLIJKE NEDERLANDSE AKADEMIE VAN WETENSCHAPPEN, published 2014)

What was measured:
Assay in all cases: TAP + mass spectrometry, HEK293 cells
[1] = molecular target: T1, LRP6 (endogenous) (human, UniProt O75581 20-1613)
T1 construct: whole, on cells

[2] = molecular target: T2, LRP5 (endogenous) (human, UniProt O75197 32-1615)
T2 construct: whole, on cells

[3] = molecular target: T3, Lgr4 (endogenous, or expression construct whose tag is not stated) (human, UniProt Q9BXB1 25-951)
T3 construct: whole, on cells; Endogenous protein of HEK293T / LS174T cells in TAP-MS; also called endogenous Lgr4

T2 sequence (O75197 32-1615): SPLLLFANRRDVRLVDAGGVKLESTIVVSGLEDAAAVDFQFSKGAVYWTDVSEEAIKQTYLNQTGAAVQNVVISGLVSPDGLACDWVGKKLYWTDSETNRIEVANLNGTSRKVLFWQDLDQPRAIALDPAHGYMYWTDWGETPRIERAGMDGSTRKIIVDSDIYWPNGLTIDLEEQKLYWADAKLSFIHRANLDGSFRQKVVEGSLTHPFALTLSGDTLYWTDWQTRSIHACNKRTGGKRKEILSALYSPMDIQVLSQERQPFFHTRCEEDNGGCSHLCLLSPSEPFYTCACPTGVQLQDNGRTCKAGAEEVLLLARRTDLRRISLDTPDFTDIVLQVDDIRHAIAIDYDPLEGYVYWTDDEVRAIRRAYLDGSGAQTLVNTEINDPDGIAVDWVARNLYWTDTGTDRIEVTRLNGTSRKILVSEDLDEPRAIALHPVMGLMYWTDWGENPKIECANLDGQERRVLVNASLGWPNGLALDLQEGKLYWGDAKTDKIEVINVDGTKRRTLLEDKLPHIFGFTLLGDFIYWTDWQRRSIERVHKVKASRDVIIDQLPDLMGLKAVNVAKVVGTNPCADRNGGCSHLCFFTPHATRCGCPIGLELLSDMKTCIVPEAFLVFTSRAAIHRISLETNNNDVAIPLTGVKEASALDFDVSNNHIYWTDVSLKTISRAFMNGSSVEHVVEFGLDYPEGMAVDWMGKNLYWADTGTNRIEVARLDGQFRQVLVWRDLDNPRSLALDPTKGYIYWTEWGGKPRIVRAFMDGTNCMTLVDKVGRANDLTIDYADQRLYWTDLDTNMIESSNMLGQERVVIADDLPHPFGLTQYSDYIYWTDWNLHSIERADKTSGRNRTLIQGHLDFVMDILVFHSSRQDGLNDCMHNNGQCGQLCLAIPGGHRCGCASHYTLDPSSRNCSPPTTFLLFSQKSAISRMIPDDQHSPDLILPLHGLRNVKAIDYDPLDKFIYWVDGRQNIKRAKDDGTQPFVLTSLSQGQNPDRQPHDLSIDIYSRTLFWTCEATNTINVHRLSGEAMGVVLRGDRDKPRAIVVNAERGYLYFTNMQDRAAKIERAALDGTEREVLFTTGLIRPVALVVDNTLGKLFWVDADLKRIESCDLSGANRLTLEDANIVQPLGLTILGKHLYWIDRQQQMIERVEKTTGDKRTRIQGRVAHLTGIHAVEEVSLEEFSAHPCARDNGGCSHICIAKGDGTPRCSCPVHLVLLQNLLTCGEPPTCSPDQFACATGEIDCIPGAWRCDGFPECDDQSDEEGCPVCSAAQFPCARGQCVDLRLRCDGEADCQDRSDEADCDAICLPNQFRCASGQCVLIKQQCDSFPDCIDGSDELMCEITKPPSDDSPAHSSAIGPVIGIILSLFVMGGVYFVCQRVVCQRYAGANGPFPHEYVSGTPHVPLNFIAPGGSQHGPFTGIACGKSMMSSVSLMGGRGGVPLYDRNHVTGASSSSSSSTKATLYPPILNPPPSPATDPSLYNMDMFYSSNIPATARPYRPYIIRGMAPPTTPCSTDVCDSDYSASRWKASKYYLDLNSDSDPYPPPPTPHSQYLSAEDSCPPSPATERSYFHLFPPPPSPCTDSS
T1 sequence (O75581 20-1613): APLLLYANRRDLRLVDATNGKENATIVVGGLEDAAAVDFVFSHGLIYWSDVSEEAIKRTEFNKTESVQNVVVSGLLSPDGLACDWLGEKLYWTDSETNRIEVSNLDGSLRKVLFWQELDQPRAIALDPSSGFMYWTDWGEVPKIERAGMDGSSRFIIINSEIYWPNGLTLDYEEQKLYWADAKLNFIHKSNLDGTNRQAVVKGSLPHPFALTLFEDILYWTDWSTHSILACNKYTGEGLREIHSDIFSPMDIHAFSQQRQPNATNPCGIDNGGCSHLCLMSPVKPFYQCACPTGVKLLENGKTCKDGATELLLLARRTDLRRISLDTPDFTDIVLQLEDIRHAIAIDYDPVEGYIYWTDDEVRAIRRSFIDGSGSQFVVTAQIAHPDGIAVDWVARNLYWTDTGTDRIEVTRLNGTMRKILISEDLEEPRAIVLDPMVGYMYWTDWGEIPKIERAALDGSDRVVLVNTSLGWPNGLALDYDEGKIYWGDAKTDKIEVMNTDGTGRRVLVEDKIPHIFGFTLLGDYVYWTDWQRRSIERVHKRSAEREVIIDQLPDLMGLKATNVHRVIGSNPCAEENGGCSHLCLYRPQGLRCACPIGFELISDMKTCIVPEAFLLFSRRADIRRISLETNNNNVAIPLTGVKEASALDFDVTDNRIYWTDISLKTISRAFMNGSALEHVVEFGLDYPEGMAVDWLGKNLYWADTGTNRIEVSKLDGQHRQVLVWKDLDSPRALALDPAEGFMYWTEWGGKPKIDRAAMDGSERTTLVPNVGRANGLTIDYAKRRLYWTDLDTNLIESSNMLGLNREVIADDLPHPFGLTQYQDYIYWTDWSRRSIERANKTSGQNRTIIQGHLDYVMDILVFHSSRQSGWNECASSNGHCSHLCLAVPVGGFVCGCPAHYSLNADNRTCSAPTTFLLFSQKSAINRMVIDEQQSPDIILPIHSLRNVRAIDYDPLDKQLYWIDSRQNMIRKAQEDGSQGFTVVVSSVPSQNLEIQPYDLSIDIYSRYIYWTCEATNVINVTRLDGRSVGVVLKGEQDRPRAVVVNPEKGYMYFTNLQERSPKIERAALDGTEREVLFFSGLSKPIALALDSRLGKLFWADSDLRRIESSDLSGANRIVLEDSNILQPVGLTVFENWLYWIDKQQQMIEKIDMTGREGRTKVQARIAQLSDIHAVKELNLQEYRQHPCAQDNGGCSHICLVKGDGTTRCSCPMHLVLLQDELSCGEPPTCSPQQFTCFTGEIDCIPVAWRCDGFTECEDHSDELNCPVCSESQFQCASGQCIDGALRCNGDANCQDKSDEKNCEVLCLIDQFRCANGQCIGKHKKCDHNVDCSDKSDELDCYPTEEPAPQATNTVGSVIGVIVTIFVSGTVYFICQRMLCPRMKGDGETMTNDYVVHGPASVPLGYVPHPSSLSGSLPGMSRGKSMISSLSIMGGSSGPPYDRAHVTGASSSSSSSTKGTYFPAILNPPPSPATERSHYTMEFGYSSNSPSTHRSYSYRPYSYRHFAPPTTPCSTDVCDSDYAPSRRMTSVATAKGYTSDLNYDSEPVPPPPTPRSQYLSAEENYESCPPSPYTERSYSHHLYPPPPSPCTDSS

Row | binding result [1] | binding result [2] | binding result [3] | Binder
1 | no binding | no binding | – | USP47 (enzyme, not shown: small tags and cut ends, TAP-MS bait) MVPGEENQLVPKEDVFWRCRQNIFDEMKKKFLQIENAAEEPRVLCIIQDTTNSKTVNERITLNLPASTPVRKLFEDVANKVGYINGTFDLVWGNGINTADMAPLDHTSDKSLLDANFEPGKKNFLHLTDKDGEQPQILLEDSSAGEDSVHDRFIGPLPREGSGGSTSDYVSQSYSYSSILNKSETGYVGLVNQAMTCYLNSLLQTLFMTPEFRNALYKWEFEESEEDPVTSIPYQLQRLFVLLQTSKKRAIETTDVTRSFGWDSSEAWQQHDVQELCRVMFDALEQKWKQTEQADLINELYQGKLKDYVRCLECGYEGWRIDTYLDIPLVIRPYGSSQAFASVEEALHAFIQPEILDGPNQYFCERCKKKCDARKGLRFLHFPYLLTLQLKRFDFDYTTMHRIKLNDRMTFPEELDMSTFIDVEDEKSPQTESCTDSGAENEGSCHSDQMSNDFSNDDGVDEGICLETNSGTEKISKSGLEKNSLIYELFSVMVHSGSAAGGHYYACIKSFSDEQWYSFNDQHVSRITQEDIKKTHGGSSGSRGYYSSAFASSTNAYMLIYRLKDPARNAKFLEVDEYPEHIKNLVQKERELEEQEKRQREIERNTCKIKLFCLHPTKQVMMENKLEVHKDKTLKEAVEMAYKMMDLEEVIPLDCCRLVKYDEFHDYLERSYEGEEDTPMGLLLGGVKSTYMFDLLLETRKPDQVFQSYKPGEVMVKVHVVDLKAESVAAPITVRAYLNQTVTEFKQLISKAIHLPAETMRIVLERCYNDLRLLSVSSKTLKAEGFFRSNKVFVESSETLDYQMAFADSHLWKLLDRHANTIRLFVLLPEQSPVSYSKRTAYQKAGGDSGNVDDDCERVKGPVGSLKSVEAILEESTEKLKSLSLQQQQDGDNGDSSKSTETSDFENIESPLNERDSSASVDNRELEQHIQTSDPENFQSEERSDSDVNNDRSTSSVDSDILSSSHSSDTLCNADNAQIPLANGLDSHSITSSRRTKANEGKKETWDTAEEDSGTDSEYDESGKSRGEMQYMYFKAEPYAADEGSGEGHKWLMVHVDKRITLAAFKQHLEPFVGVLSSHFKVFRVYASNQEFESVRLNETLSSFSDDNKITIRLGRALKKGEYRVKVYQLLVNEQEPCKFLLDAVFAKGMTVRQSKEELIPQLREQCGLELSIDRFRLRKKTWKNPGTVFLDYHIYEEDINISSNWEVFLEVLDGVEKMKSMSQLAVLSRRWKPSEMKLDPFQEVVLESSSVDELREKLSEISGIPLDDIEFAKGRGTFPCDISVLDIHQDLDWNPKVSTLNVWPLYICDDGAVIFYRDKTEELMELTDEQRNELMKKESSRLQKTGHRVTYSPRKEKALKIYLDGAPNKDLTQD
2 | – | no binding | – | RNF43 (other, not shown: small tags and cut ends, TAP-MS bait) GFGRTGLVLAAAVESERSAEQKAIIRVIPLKMDPTGKLNLTLEGVFAGVAEITPAEGKLMQSHPLYLCNASDDDNLEPGFISIVKLESPRRAPRPCLSLASKARMAGERGASAVLFDITEDRAAAEQLQQPLGLTWPVVLIWGNDAEKLMEFVYKNQKAHVRIELKEPPAWPDYDVWILMTVVGTIFVIILASVLRIRCRPRHSRPDPLQQRTAWAISQLATRRYQASCRQARGEWPDSGSSCSSAPVCAICLEEFSEGQELRVISCLHEFHRNCVDPWLHQHRTCPLCMFNITEGDSFSQSLGPSRSYQEPGRRLHLIRQHPGHAHYHLPAAYLLGPSRSAVARPPRPGPFLPSQEPGMGPRHHRFPRAAHPRAPGEQQRLAGAQHPYAQGWGLSHLQSTSQHPAACPVPLRRARPPDSSGSGESYCTERSGYLADGPASDSSSGPCHGSSSDSVVNCTDISLQGVHGSSSTFCSSLSSDFDPLVYCSPKGDPQRVDMQPSVTSRPRSLDSVVPTGETQVSSHVHYHRHRHHHYKKRFQWHGRKPGPETGVPQSRPPIPRTQPQPEPPSPDQQVTRSNSAAPSGRLSNPQCPRALPEPAPGPVDASSICPSTSSLFNLQKSSLSARHPQRKRRGGPSEPTPGSRPQDATVHPACQIFPHYTPSVAYPWSPEAHPLICGPPGLDKRLLPETPGPCYSNSQPVWLCLTPRQPLEPHPPGEGPSEWSSDTAEGRPCPYPHCQVLSAQPGSEEELEELCEQAV
3 | no binding | no binding | – | FBXO18 (other, not shown: small tags and cut ends, TAP-MS bait) MRRFKRKHLTAIDCQHLARSHLAVTQPFGQRWTNRDPNHGLYPKPRTKRGSRGQGSQRCIPEFFLAGKQPCTNDMAKSNSVGQDSCQDSEGDMIFPAESSCALPQEGSAGPGSPGSAPPSRKRSWSSEEESNQATGTSRWDGVSKKAPRHHLSVPCTRPREARQEAEDSTSRLSAESGETDQDAGDVGPDPIPDSYYGLLGTLPCQEALSHICSLPSEVLRHVFAFLPVEDLYWNLSLVCHLWREIISDPLFIPWKKLYHRYLMNEEQAVSKVDGILSNCGIEKESDLCVLNLIRYTATTKCSPSVDPERVLWSLRDHPLLPEAEACVRQHLPDLYAAAGGVNIWALVAAVVLLSSSVNDIQRLLFCLRRPSSTVTMPDVTETLYCIAVLLYAMREKGINISNRIHYNIFYCLYLQENSCTQATKVKEEPSVWPGKKTIQLTHEQQLILNHKMEPLQVVKIMAFAGTGKTSTLVKYAEKWSQSRFLYVTFNKSIAKQAERVFPSNVICKTFHSMAYGHIGRKYQSKKKLNLFKLTPFMVNSVLAEGKGGFIRAKLVCKTLENFFASADEELTIDHVPIWCKNSQGQRVMVEQSEKLNGVLEASRLWDNMRKLGECTEEAHQMTHDGYLKLWQLSKPSLASFDAIFVDEAQDCTPAIMNIVLSQPCGKIFVGDPHQQIYTFRGAVNALFTVPHTHVFYLTQSFRFGVEIAYVGATILDVCKRVRKKTLVGGNHQSGIRGDAKGQVALLSRTNANVFDEAVRVTEGEFPSRIHLIGGIKSFGLDRIIDIWILLQPEEERRKQNLVIKDKFIRRWVHKEGFSGFKRYVTAAEDKELEAKIAVVEKYNIRIPELVQRIEKCHIEDLDFAEYILGTVHKAKGLEFDTVHVLDDFVKVPCARHNLPQLPHFRVESFSEDEWNLLYVAVTRAKKRLIMTKSLENILTLAGEYFLQAELTSNVLKTGVVRCCVGQCNNAIPVDTVLTMKKLPITYSNRKENKGGYLCHSCAEQRIGPLAFLTASPEQVRAMERTVENIVLPRHEALLFLVF
4 | no binding | no binding | no binding | FBXO3 (other, not shown: small tags and cut ends, TAP-MS bait) MAAMETETAPLTLESLPTDPLLLILSFLDYRDLINCCYVSRRLSQLSSHDPLWRRHCKKYWLISEEEKTQKNQCWKSLFIDTYSDVGRYIDHYAAIKKAWDDLKKYLEPRCPRMVLSLKEGAREEDLDAVEAQIGCKLPDDYRCSYRIHNGQKLVVPGLLGSMALSNHYRSEDLLDVDTAAGGFQQRQGLKYCLPLTFCIHTGLSQYIAVEAAEGRNKNEVFYQCPDQMARNPAAIDMFIIGATFTDWFTSYVKNVVSGGFPIIRDQIFRYVHDPECVATTGDITVSVSTSFLPELSSVHPPHYFFTYRIRIEMSKDALPEKACQLDSRYWRITNAKGDVEEVQGPGVVGEFPIISPGRVYEYTSCTTFSTTSGYMEGYYTFHFLYFKDKIFNVAIPRFHMACPTFRVSIARLEMGPDEYEEMEEEEEEEEEEDEDDDSADMDESDEDDEEERRRRVFDVPIRRRRCSRLF
5 | no binding | no binding | no binding | FBXO31 (other, not shown: small tags and cut ends, TAP-MS bait) MAVCARLCGVGPSRGCRRRQQRRGPAETAAADSEPDTDPEEERIEASAGVGGGLCAGPSPPPPRCSLLELPPELLVEIFASLPGTDLPSLAQVCTKFRRILHTDTIWRRRCREEYGVCENLRKLEITGVSCRDVYAKLLHRYRHILGLWQPDIGPYGGLLNVVVDGLFIIGWMYLPPHDPHVDDPMRFKPLFRIHLMERKAATVECMYGHKGPHHGHIQIVKKDEFSTKCNQTDHHRMSGGRQEEFRTWLREEWGRTLEDIFHEHMQELILMKFIYTSQYDNCLTYRRIYLPPSRPDDLIKPGLFKGTYGSHGLEIVMLSFHGRRARGTKITGDPNIPAGQQTVEIDLRHRIQLPDLENQRNFNELSRIVLEVRERVRQEQQEGGHEAGEGRGRQGPRESQPSPAQPRAEAPSKGPDGTPGEDGGEPGDAVAAAEQPAQCGQGQPFVLPVGVSSRNEDYPRTCRMCFYGTGLIAGHGFTSPERTPGVFILFDEDRFGFVWLELKSFSLYSRVQATFRNADAPSPQAFDEMLKNIQSLTS
6 | no binding | no binding | – | PER2 (other, not shown: small tags and cut ends, TAP-MS bait) MNGYAEFPPSPSNPTKEPVEPQPSQVPLQEDVDMSSGSSGHETNENCSTGRDSQGSDCDDSGKELGMLVEPPDARQSPDTFSLMMAKSEHNPSTSGCSSDQSSKVDTHKELIKTLKELKVHLPADKKAKGKASTLATLKYALRSVKQVKANEEYYQLLMSSEGHPCGADVPSYTVEEMESVTSEHIVKNADMFAVAVSLVSGKILYISDQVASIFHCKRDAFSDAKFVEFLAPHDVGVFHSFTSPYKLPLWSMCSGADSFTQECMEEKSFFCRVSVRKSHENEIRYHPFRMTPYLVKVRDQQGAESQLCCLLLAERVHSGYEAPRIPPEKRIFTTTHTPNCLFQDVDERAVPLLGYLPQDLIETPVLVQLHPSDRPLMLAIHKKILQSGGQPFDYSPIRFRARNGEYITLDTSWSSFINPWSRKISFIIGRHKVRVGPLNEDVFAAHPCTEEKALHPSIQELTEQIHRLLLQPVPHSGSSGYGSLGSNGSHEHLMSQTSSSDSNGHEDSRRRRAEICKNGNKTKNRSHYSHESGEQKKKSVTEMQTNPPAEKKAVPAMEKDSLGVSFPEELACKNQPTCSYQQISCLDSVIRYLESCNEAATLKRKCEFPANVPALRSSDKRKATVSPGPHAGEAEPPSRVNSRTGVGTHLTSLALPGKAESVASLTSQCSYSSTIVHVGDKKPQPELEMVEDAASGPESLDCLAGPALACGLSQEKEPFKKLGLTKEVLAAHTQKEEQSFLQKFKEIRKLSIFQSHCHYYLQERSKGQPSERTAPGLRNTSGIDSPWKKTGKNRKLKSKRVKPRDSSESTGSGGPVSARPPLVGLNATAWSPSDTSQSSCPAVPFPAPVPAAYSLPVFPAPGTVAAPPAPPHASFTVPAVPVDLQHQFAVQPPPFPAPLAPVMAFMLPSYSFPSGTPNLPQAFFPSQPQFPSHPTLTSEMASASQPEFPSRTSIPRQPCACPATRATPPSAMGRASPPLFQSRSSSPLQLNLLQLEEAPEGGTGAMGTTGATETAAVGADCKPGTSRDQQPKAPLTRDEPSDTQNSDALSTSSGLLNLLLNEDLCSASGSAASESLGSGSLGCDASPSGAGSSDTSHTSKYFGSIDSSENNHKAKMNTGMEESEHFIKCVLQDPIWLLMADADSSVMMTYQLPSRNLEAVLKEDREKLKLLQKLQPRFTESQKQELREVHQWMQTGGLPAAIDVAECVYCENKEKGNICIPYEEDIPSLGLSEVSDTKEDENGSPLNHRIEEQT
